Source: the supplement of paper PMC11246515
± gives the standard deviation of the averaged measurements.

Assay: total protein half-life in vivo (active degradation + dilution); higher = more stable protein
[1] = E. coli NCM3722 delta-clpP delta-lon delta-hslV, growth: N-lim chemostat, doubling time 6 h
[2] = E. coli NCM3722 delta-clpP, growth: N-lim chemostat, doubling time 6 h
[3] = E. coli NCM3722 delta-hslV, growth: N-lim chemostat, doubling time 6 h
[4] = E. coli NCM3722 delta-lon, growth: N-lim chemostat, doubling time 6 h
[5] = E. coli NCM3722 delta-smpB, growth: N-lim chemostat, doubling time 6 h
[6] = wild type E. coli NCM3722, growth: C-lim chemostat, doubling time 3 h
[7] = wild type E. coli NCM3722, growth: C-lim chemostat, doubling time 6 h
[8] = wild type E. coli NCM3722, growth: C-lim chemostat, doubling time 12 h
[9] = wild type E. coli NCM3722, growth: N-lim chemostat, doubling time 6 h
[10] = wild type E. coli NCM3722, growth: N-lim chemostat, doubling time 12 h
[11] = wild type E. coli NCM3722, growth: P-lim chemostat, doubling time 6 h
[12] = wild type E. coli NCM3722, growth: P-lim chemostat, doubling time 12 h

MKTIEVDDELYSYIASHTKHIGESASDILRRMLKFSAASQPAAPVTKEVRVASPAIVEAKPVKTIKDKVRAMRELLLSDEYAEQKRAVNRFMLLLSTLYSLDAQAFAEATESLHGRTRVYFAADEQTLLKNGNQTKPKHVPGTPYWVITNTNTGRKCSMIEHIMQSMQFPAELIEKVCGTI [P0AFY8]
total protein half-life in vivo [1]: 6.27 ± 0.64 h
total protein half-life in vivo [2]: 5.709 ± 0.046 h
total protein half-life in vivo [3]: 5.89 ± 0.072 h
total protein half-life in vivo [4]: 5.19 ± 0.16 h
total protein half-life in vivo [5]: 4.27 ± 0.23 h
total protein half-life in vivo [6]: 2.738 ± 0.014 h
total protein half-life in vivo [7]: 4.84 ± 0.89 h
total protein half-life in vivo [8]: 12.7 ± 0.44 h
total protein half-life in vivo [9]: 4.7 ± 0.42 h
total protein half-life in vivo [10]: 8.55 ± 1.1 h
total protein half-life in vivo [11]: 4.71 ± 0.44 h
total protein half-life in vivo [12]: 9.12 ± 0.4 h

MSEPQRLFFAIDLPAEIREQIIHWRATHFPPEAGRPVAADNLHLTLAFLGEVSAEKEKALSLLAGRIRQPGFTLTLDDAGQWLRSRVVWLGMRQPPRGLIQLANMLRSQAARSGCFQSNRPFHPHITLLRDASEAVTIPPPGFNWSYAVTEFTLYASSFARGRTRYTPLKRWALTQ
total protein half-life in vivo [1]: 5.3 ± 0.55 h
total protein half-life in vivo [2]: 4.8 h
total protein half-life in vivo [5]: 4.66 ± 0.56 h
total protein half-life in vivo [6]: 3.11 h
total protein half-life in vivo [7]: 6.25 ± 0.27 h
total protein half-life in vivo [8]: 11 h
total protein half-life in vivo [9]: 5.03 ± 0.89 h
total protein half-life in vivo [10]: 8.49 ± 0.71 h
total protein half-life in vivo [11]: 5.55 ± 0.13 h
total protein half-life in vivo [12]: 11.33 ± 0.097 h

MSVKVIVTDMDGTFLNDAKTYNQPRFMAQYQELKKRGIKFVVASGNQYYQLISFFPELKDEISFVAENGALVYEHGKQLFHGELTRHESRIVIGELLKDKQLNFVACGLQSAYVSENAPEAFVALMAKHYHRLKPVKDYQEIDDVLFKFSLNLPDEQIPLVIDKLHVALDGIMKPVTSGFGFIDLIIPGLHKANGISRLLKRWDLSPQNVVAIGDSGNDAEMLKMARYSFAMGNAAENIKQIARYATDDNNHEGALNVIQAVLDNTSPFNS
total protein half-life in vivo [1]: 5.01 ± 0.82 h
total protein half-life in vivo [2]: 4.02 ± 0.23 h
total protein half-life in vivo [3]: 4.38 ± 0.48 h
total protein half-life in vivo [4]: 4.38 ± 0.34 h
total protein half-life in vivo [5]: 3.98 ± 0.12 h
total protein half-life in vivo [6]: 3.71 ± 0.2 h
total protein half-life in vivo [8]: 12.38 ± 0.075 h
total protein half-life in vivo [9]: 4.31 ± 0.45 h
total protein half-life in vivo [10]: 6.96 ± 0.49 h
total protein half-life in vivo [11]: 6.13 ± 0.23 h

MESKRLDNAALAAGISPNYINAHGKPQSISAETKRRLLDAMHQRTATKVAVTPVPNVMVYTSGKKMPMVVEGSGEYSWLLTTEEGTQYKGHVTGGKAFNLPTKLPEGYHTLTLTQDDQRAHCRVIVAPKRCYEPQALLNKQKLWGACVQLYTLRSEKNWGIGDFGDLKAMLVDVAKRGGSFIGLNPIHALYPANPESASPYSPSSRRWLNVIYIDVNAVEDFHLSEEAQAWWQLPTTQQTLQQARDADWVDYSTVTALKMTALRMAWKGFAQRDDEQMAAFRQFVAEQGDSLFWQAAFDALHAQQVKEDEMRWGWPAWPEMYQNVDSPEVRQFCEEHRDDVDFYLWLQWLAYSQFAACWEISQGYEMPIGLYRDLAVGVAEGGAETWCDRELYCLKASVGAPPDILGPLGQNWGLPPMDPHIITARAYEPFIELLRANMQNCGALRIDHVMSMLRLWWIPYGETADQGAYVHYPVDDLLSILALESKRHRCMVIGEDLGTVPVEIVGKLRSSGVYSYKVLYFENDHEKTFRAPKAYPEQSMAVAATHDLPTLRGYWECGDLTLGKTLGLYPDEVVLRGLYQDRELAKQGLLDALHKYGCLPKRAGHKASLMSMTPTLNRGLQRYIADSNSALLGLQPEDWLDMAEPVNIPGTSYQYKNWRRKLSATLESMFADDGVNKLLKDLDRRRRAAAKKK
total protein half-life in vivo [1]: 6.24 ± 0.17 h
total protein half-life in vivo [2]: 6.29 ± 0.23 h
total protein half-life in vivo [4]: 4.12 ± 1.7 h
total protein half-life in vivo [5]: 5.57 ± 0.12 h
total protein half-life in vivo [7]: 6.27 ± 0.46 h
total protein half-life in vivo [8]: 13.5 ± 1.4 h
total protein half-life in vivo [9]: 6.03 ± 0.061 h
total protein half-life in vivo [10]: 12.1 ± 0.58 h
total protein half-life in vivo [11]: 5.25 ± 0.14 h
total protein half-life in vivo [12]: 10.3 ± 0.19 h

MATYLIGDVHGCYDELIALLHKVEFTPGKDTLWLTGDLVARGPGSLDVLRYVKSLGDSVRLVLGNHDLHLLAVFAGISRNKPKDRLTPLLEAPDADELLNWLRRQPLLQIDEEKKLVMAHAGITPQWDLQTAKECARDVEAVLSSDSYPFFLDAMYGDMPNNWSPELRGLGRLRFITNAFTRMRFCFPNGQLDMYSKESPEEAPAPLKPWFAIPGPVAEEYSIAFGHWASLEGKGTPEGIYALDTGCCWGGTLTCLRWEDKQYFVQPSNRHKDLGEAAAS
total protein half-life in vivo [1]: 4.24 ± 0.43 h
total protein half-life in vivo [2]: 4.196 ± 0.017 h
total protein half-life in vivo [3]: 3.52 ± 0.16 h
total protein half-life in vivo [4]: 3.56 ± 0.044 h
total protein half-life in vivo [5]: 3.68 ± 0.14 h
total protein half-life in vivo [6]: 2.71 ± 0.18 h
total protein half-life in vivo [7]: 4.718 ± 0.0074 h
total protein half-life in vivo [8]: 6.99 ± 0.28 h
total protein half-life in vivo [9]: 4.03 ± 0.15 h
total protein half-life in vivo [10]: 5.76 ± 0.16 h
total protein half-life in vivo [11]: 4.83 ± 0.51 h
total protein half-life in vivo [12]: 9.31 ± 0.91 h

MAIHNRAGQPAQQSDLINVAQLTAQYYVLKPEAGNAEHAVKFGTSGHRGSAARHSFNEPHILAIAQAIAEERAKNGITGPCYVGKDTHALSEPAFISVLEVLAANGVDVIVQENNGFTPTPAVSNAILVHNKKGGPLADGIVITPSHNPPEDGGIKYNPPNGGPADTNVTKVVEDRANALLADGLKGVKRISLDEAMASGHVKEQDLVQPFVEGLADIVDMAAIQKAGLTLGVDPLGGSGIEYWKRIGEYYNLNLTIVNDQVDQTFRFMHLDKDGAIRMDCSSECAMAGLLALRDKFDLAFANDPDYDRHGIVTPAGLMNPNHYLAVAINYLFQHRPQWGKDVAVGKTLVSSAMIDRVVNDLGRKLVEVPVGFKWFVDGLFDGSFGFGGEESAGASFLRFDGTPWSTDKDGIIMCLLAAEITAVTGKNPQEHYNELAKRFGAPSYNRLQAAATSAQKAALSKLSPEMVSASTLAGDPITARLTAAPGNGASIGGLKVMTDNGWFAARPSGTEDAYKIYCESFLGEEHRKQIEKEAVEIVSEVLKNA
total protein half-life in vivo [1]: 5.51 ± 0.17 h
total protein half-life in vivo [2]: 5.19 ± 0.29 h
total protein half-life in vivo [3]: 5.82 ± 0.08 h
total protein half-life in vivo [4]: 5.31 ± 0.31 h
total protein half-life in vivo [5]: 5.64 ± 0.31 h
total protein half-life in vivo [6]: 2.98 ± 0.16 h
total protein half-life in vivo [8]: 9.719 ± 0.083 h
total protein half-life in vivo [9]: 5.2 ± 0.099 h
total protein half-life in vivo [10]: 9.34 ± 0.22 h
total protein half-life in vivo [11]: 5.905 ± 0.033 h
total protein half-life in vivo [12]: 11.6 ± 0.12 h

MKTFPLQSLTIIEAQQKQFALVDSICRHFPGSEFLTGGDLGLTPGLNQPRVTQRVEQVLADAFHAQAAALVQGAGTGAIRAGLAALLKPGQRLLVHDAPVYPTTRVIIEQMGLTLITVDFNDLSALKQVVDEQQPDAALVQHTRQQPQDSYVLADVLATLRAAGVPALTDDNYAVMKVARIGCECGANVSTFSCFKLFGPEGVGAVVGDADVINRIRATLYSGGSQIQGAQALEVLRGLVFAPVMHAVQAGVSERLLALLNGGAVPEVKSAVIANAQSKVLIVEFHQPIAARVLEEAQKRGALPYPVGAESKYEIPPLFYRLSGTFRQANPQSEHCAIRINPNRSGEETVLRILRESIASI
total protein half-life in vivo [1]: 5.7 ± 0.96 h
total protein half-life in vivo [2]: 5.48 h
total protein half-life in vivo [3]: 4.47 h
total protein half-life in vivo [4]: 4.71 h
total protein half-life in vivo [9]: 4.59 h
total protein half-life in vivo [10]: 8.25 h
total protein half-life in vivo [11]: 5.35 h
total protein half-life in vivo [12]: 12.4 h

MFLINGHKQESLAVSDRATQFGDGCFTTARVIDGKVSLLSAHIQRLQDACQRLMISCDFWPQLEQEMKTLAAEQQNGVLKVVISRGSGGRGYSTLNSGPATRILSVTAYPAHYDRLRNEGITLALSPVRLGRNPHLAGIKHLNRLEQVLIRSHLEQTNADEALVLDSEGWVTECCAANLFWRKGNVVYTPRLDQAGVNGIMRQFCIRLLAQSSYQLVEVQASLEESLQADEMVICNALMPVMPVCACGDVSFSSATLYEYLAPLCERPN
total protein half-life in vivo [1]: 5.13 ± 0.82 h
total protein half-life in vivo [2]: 3.87 ± 0.15 h
total protein half-life in vivo [4]: 4.279 ± 0.035 h
total protein half-life in vivo [5]: 3.89 ± 0.18 h
total protein half-life in vivo [6]: 3.04 ± 0.24 h
total protein half-life in vivo [7]: 5.58 ± 0.27 h
total protein half-life in vivo [8]: 10.9 ± 0.86 h
total protein half-life in vivo [9]: 3.82 ± 0.069 h
total protein half-life in vivo [10]: 6.33 ± 0.35 h
total protein half-life in vivo [11]: 6.45 ± 1.4 h
total protein half-life in vivo [12]: 10.7 ± 1 h
